Measured values as given in the supplement of paper PMC10567573.

B1: CCNC (parent)
chain: QSSHYLQWILDKQDLLKERQKDLK

Variants of: B1
Test: protein stability index of a GFP-peptide fusion (GPS, HEK-293T) (PSI 1-6); higher = more stable
Settings: c terminus: a fixed tail appended
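Note: lentivirally expressed fusions sorted by FACS into six bins by GFP to DsRed ratio, PSI derived from sequencing read proportions per bin multiplied by bin number.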

| Variant | protein stability index |
| --- | --- |
| QSSHYLQWILDKQDLLKERVKDLK [Q20V] | 2.69 |
| QSSHYLQWILDKQDLLKERDKDLK [Q20D] | 3.01 |
| QSSHYLQWILDKQDLLKERMKDLK [Q20M] | 1.99 |
| QSSHYLQWILDKQDLLKERWKDLK [Q20W] | 1.44 |
| QSSHYLQWILDKQDLLKERRKDLK [Q20R] | 3.5 |
| QSSHYLQWILDKQDLLKERYKDLK [Q20Y] | 2.38 |
| QSSHYLQWILDKQDLLKERCKDLK [Q20C] | 2.46 |
| QSSHYLQWILDKQDLLKERNKDLK [Q20N] | 3.21 |
| QSSHYLQWILDKQDLLKEREKDLK [Q20E] | 2.96 |
| QSSHYLQWILDKQDLLKERHKDLK [Q20H] | 3.16 |
| QSSHYLQWILDKQDLLKERPKDLK [Q20P] | 2.76 |
| QSSHYLQWILDKQDLLKERGKDLK [Q20G] | 2.98 |
| QSSHYLQWILDKQDLLKERIKDLK [Q20I] | 1.66 |
| QSSHYLQWILDKQDLLKERTKDLK [Q20T] | 3.2 |
| QSSHYLQWILDKQDLLKERKKDLK [Q20K] | 3.07 |
| QSSHYLQWILDKQDLLKEWQKDLK [R19W] | 2.64 |
| QSSHYLQWILDKQDLLKETQKDLK [R19T] | 3.14 |
| QSSHYLQWILDKQDLLKEYQKDLK [R19Y] | 2.72 |
| QSSHYLQWILDKQDLLKEVQKDLK [R19V] | 2.19 |
| QSSHYLQWILDKQDLLKERQLDLK [K21L] | 2.43 |
| QSSHYLQWILDKQDLLKERQCDLK [K21C] | 2.42 |
| QSSHYLQWILDKQDLLKERQRDLK [K21R] | 4.05 |
| QSSHYLQWILDKQDLLKERQTDLK [K21T] | 3.28 |
| QSSHYLQWILDKQDLLKERQDDLK [K21D] | 2.83 |

| Variant | protein stability index |
| --- | --- |
| QSSHYLQWILDKQDLLKERQQDLK [K21Q] | 3.02 |
| QSSHYLQWILDKQDLLKERQEDLK [K21E] | 2.99 |
| QSSHYLQWILDKQDLLKERQWDLK [K21W] | 2.3 |
| QSSHYLQWILDKQDLLKERQIDLK [K21I] | 3.01 |
| QSSHYLQWILDKQDLLKERQMDLK [K21M] | 2.9 |
| QSSHYLQWILDKQDLLKERQGDLK [K21G] | 2.87 |
| QSSHYLQWILDKQDLLKERQPDLK [K21P] | 3.42 |
| QSSHYLQWILDKQDLLKERQADLK [K21A] | 2.78 |
| QSSHYLQWILDKQDLLKERQHDLK [K21H] | 2.45 |
| QSSHYLQWILDKQDLLKERQSDLK [K21S] | 2.84 |
| QSSHYLQWILDKQDLLKERQNDLK [K21N] | 2.57 |
| QSSHYLQWILDKQDLLKERQFDLK [K21F] | 1.69 |
| QSSHYLQWILDKQDLLKERQYDLK [K21Y] | 2.69 |
| QSSHYLQWILDKQDLLKERQKDLS [K24S] | 2.81 |
| QSSHYLQWILDKQDLLKERQKDLD [K24D] | 4.08 |
| QSSHYLQWILDKQDLLKERQKDLA [K24A] | 2.66 |
| QSSHYLQWILDKQDLLKERQKDLM [K24M] | 2.57 |
| QSSHYLQWILDKQDLLKERQKDLG [K24G] | 3.1 |
| QSSHYLQWILDKQDLLKERQKDLN [K24N] | 3.46 |
| QSSHYLQWILDKQDLLKERQKDLI [K24I] | 2.21 |
| QSSHYLQWILDKQDLLKERQKDLR [K24R] | 2.57 |
| QSSHYLQWILDKQDLLKERQKDLT [K24T] | 2.96 |
| QSSHYLQWILDKQDLLKERQKDLY [K24Y] | 2.17 |
| QSSHYLQWILDKQDLLKERQKDLQ [K24Q] | 2.77 |

| Variant | protein stability index |
| --- | --- |
| QSSHYLQWILDKQDLLKERQKDLF [K24F] | 2.69 |
| QSSHYLQWILDKQDLLKERQKDLC [K24C] | 2.29 |
| QSSHYLQWILDKQDLLKERQKDLV [K24V] | 2.92 |
| QSSHYLQWILDKQDLLKERQKDLP [K24P] | 2.4 |
| QSSHYLQWILDKQDLLKERQKDLE [K24E] | 3.78 |
| QSSHYLQWILDKQDLLKERQKDLW [K24W] | 1.78 |
| QSSHYLQWILDKQDLLKERQKDLH [K24H] | 3.29 |
| QSSHYLQWILDKQDLLKERQKDLL [K24L] | 3.19 |
| QSSHYLQWILDKQDLLKERQKDHK [L23H] | 3.31 |
| QSSHYLQWILDKQDLLKERQKDKK [L23K] | 3.6 |
| QSSHYLQWILDKQDLLKERQKDAK [L23A] | 3.41 |
| QSSHYLQWILDKQDLLKERQKDFK [L23F] | 2.82 |
| QSSHYLQWILDKQDLLKERQKDSK [L23S] | 3.54 |
| QSSHYLQWILDKQDLLKERQKDDK [L23D] | 4.22 |
| QSSHYLQWILDKQDLLKERQKDCK [L23C] | 3.31 |
| QSSHYLQWILDKQDLLKERQKDIK [L23I] | 3.39 |
| QSSHYLQWILDKQDLLKERQKDWK [L23W] | 2.98 |
| QSSHYLQWILDKQDLLKERQKDEK [L23E] | 3.81 |
| QSSHYLQWILDKQDLLKERQKDNK [L23N] | 3.18 |
| QSSHYLQWILDKQDLLKERQKDYK [L23Y] | 1.85 |
| QSSHYLQWILDKQDLLKERQKDPK [L23P] | 2.59 |
| QSSHYLQWILDKQDLLKERQKDMK [L23M] | 3.31 |
| QSSHYLQWILDKQDLLKERQKDRK [L23R] | 3.52 |
| QSSHYLQWILDKQDLLKERQKDQK [L23Q] | 3.83 |

| Variant | protein stability index |
| --- | --- |
| QSSHYLQWILDKQDLLKERQKDGK [L23G] | 4.43 |
| QSSHYLQWILDKQDLLKERQKDVK [L23V] | 2.48 |
| QSSHYLQWILDKQDLLKERQKDTK [L23T] | 3.27 |
| QSSHYLQWILDKQDLLKERQKRLK [D22R] | 3.72 |
| QSSHYLQWILDKQDLLKERQKELK [D22E] | 3.19 |
| QSSHYLQWILDKQDLLKERQKALK [D22A] | 2.61 |
| QSSHYLQWILDKQDLLKERQKPLK [D22P] | 2.6 |
| QSSHYLQWILDKQDLLKERQKLLK [D22L] | 2.08 |
| QSSHYLQWILDKQDLLKERQKVLK [D22V] | 2.79 |
| QSSHYLQWILDKQDLLKERQKCLK [D22C] | 2.54 |
| QSSHYLQWILDKQDLLKERQKYLK [D22Y] | 2.82 |
| QSSHYLQWILDKQDLLKERQKMLK [D22M] | 2.55 |
| QSSHYLQWILDKQDLLKERQKGLK [D22G] | 2.6 |
| QSSHYLQWILDKQDLLKERQKFLK [D22F] | 2.67 |
| QSSHYLQWILDKQDLLKERQKQLK [D22Q] | 2.1 |
| QSSHYLQWILDKQDLLKERQKTLK [D22T] | 2.31 |
| QSSHYLQWILDKQDLLKERQKWLK [D22W] | 2.57 |
| QSSHYLQWILDKQDLLKERQKNLK [D22N] | 2.9 |
| QSSHYLQWILDKQDLLKERQKHLK [D22H] | 3.02 |
| QSSHYLQWILDKQDLLKERQKILK [D22I] | 2.48 |
| QSSHYLQWILDKQDLLKERQKKLK [D22K] | 2.18 |
| QSSHYLQWILDKQDLLKERQKSLK [D22S] | 2.59 |
